Test results as given in patent publication US20080090254.

Biological target: GST-poly(Glu, Tyr) substrate
Sequence (chain, as listed by the source): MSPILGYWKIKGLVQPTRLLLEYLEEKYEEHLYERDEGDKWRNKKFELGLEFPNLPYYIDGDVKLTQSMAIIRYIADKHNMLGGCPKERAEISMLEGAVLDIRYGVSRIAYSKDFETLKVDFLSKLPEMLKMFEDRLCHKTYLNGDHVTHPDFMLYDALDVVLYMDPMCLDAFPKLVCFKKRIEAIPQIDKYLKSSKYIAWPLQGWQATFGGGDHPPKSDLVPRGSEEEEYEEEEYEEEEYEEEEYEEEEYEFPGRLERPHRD

Row | Protein | phosphorylation of the substrate, Western blotting with anti-phosphotyrosine
1 | ErbB4 Kinase (protein) RRKSIKKKRALRRFLETELVEPLTPSGTAPNQAQLRILKETELKRVKVLGSGAFGTVYKGIWVPEGETVKIPVAIKILNETTGPKANVEFMDEALIMASMDHPHLVRLLGVCLSPTIQLVTQLMPHGCLLEYVHEHKDNIGSQLLLNWCVQIAKGMMYLEERRLVHRDLAARNVLVKSPNHVKITDFGLARLLEGDEKEYNADGGKMPIKWMALECIHYRKFTHQSDVWSYGVTIWELMTFGGKPYDGIPTREIPDLLEKGERLPQPPICTIDVYMVMVKCWMIDADSRPKFKELAAEFSRMARDPQRYLVIQGDDRMKLPSPNDSKFFQNLLDEEDLEDMMDAEEYLVPQAFNIPPPIYTSRARIDSNRSEIGHSPPPAYTPMSGNQFVYRDGGFAAEQGVSVPYRAPTSTIPEAPVAQGATAEIFDDSCCNGTLRKPVAPHVQEDSSTQRYSADPTVFAPERSPRGELDEEGYMTPMRDKPKQEYLNPVEENPFVSRRKNGDLQALDNPEYHNASNGPPKAEDEYVNEPLYLNTFANTLGKAEYLKNNILSMPEKAKKAFDNPDYWNHSLPPRSTLQHPDYLQEYSTKYFYKQNGRIRPIVAENPEYLSEFSLKPGTVLPPPPYRHRNTVV | At + of all (i to vii) of FIG. 1, a single band was seen at positions where the phosphorylated GST-poly (Glu, Tyr) substrate appears
2 | PDGF Receptor β Kinase (protein) RYEIRWKVIESVSSDGHEYIYVDPMQLPYDSTWELPRDQLVLGRTLGSGAFGQVVEATAHGLSHSQATMKVAVKMLKSTARSSEKQALMSELKIMSHLGPHLNVVNLLGACTKGGPIYIITEYCRYGDLVDYLHRNKHTFLQHHSDKRRPPSAELYSNALPVGLPLPSHVSLTGESDGGYMDMSKDESVDYVPMLDMKGDVKYADIESSNYMAPYDNYVPSAPERTCRATLINESPVLSYMDLVGFSYQVANGMEFLASKNCVHRDLAARNVLICEGKLVKICDFGLARDIMRDSNYISKGSTFLPLKWMAPESIFNSLYTTLSDVWSFGILLWEIFTLGGTPYPELPMNEQFYNAIKRGYRMAQPAHASDEIYEIMQKCWEEKFEIRPPFSQLVLLLERLLGEGYKKKYQQVDEEFLRSDHPAILRSQARLPGFHGLRSPLDTSSVLYTAVQPNEGDNDYIIPLPDPKPEVADEGPLEGSPSLASSTLNEVNTSSTISCDSPLEPQDEPEPEPQLELQVEPEPELEQLPDSGCPAPRAEAEDSFL | At + of all (i to vii) of FIG. 1, a single band was seen at positions where the phosphorylated GST-poly (Glu, Tyr) substrate appears
3 | IGF-1Receptor Kinase (protein) RKRNNSRLGNGVLYASVNPEYFSAADVYVPDEWEVAREKITMSRELGQGSFGMVYEGVAKGVVKDEPETRVAIKTVNEAASMRERIEFLNEASVMKEFNCHHVVRLLGVVSQGQPTLVIMELMTRGDLKSYLRSLRPEMENNPVLAPPSLSKMIQMAGEIADGMAYLNANKFVHRDLAARNCMVAEDFTVKIGDFGMTRDIYETDYYRKGGKGLLPVRWMSPESLKDGVFTTYSDVWSFGVVLWEIATLAEQPYQGLSNEQVLRFVMEGGLLDKPDNCPDMLFELMRMCWQYNPKMRPSFLEIISSIKEEMEPGFREVSFYYSEENKLPEPEELDLEPENMESVPLDPSASSSSLPLPDRHSGHKAENGPGPGVLVLRASFDERQPYAHMNGGRKNERALPLPQSSTC | At + of all (i to vii) of FIG. 1, a single band was seen at positions where the phosphorylated GST-poly (Glu, Tyr) substrate appears
4 | VEGF Receptor 1 Kinase (protein) RKMKRSSSEIKTDYLSIIMDPDEVPLDEQCERLPYDASKWEFARERLKLGKSLGRGAFGKVVQASAFGIKKSPTCRTVAVKMLKEGATASEYKALMTELKILTHIGHHLNVVNLLGACTKQGGPLMVIVEYCKYGNLSNYLKSKRDLFFLNKDAALHMEPKKEKMEPGLEQGKKPRLDSVTSSESFASSGFQEDKSLSDVEEEEDSDGFYKEPITMEDLISYSFQVARGMEFLSSRKCIHRDLAARNILLSENNVVKICDFGLARDIYKNPDYVRKGDTRLPLKWMAPESIFDKIYSTKSDVWSYGVLLWEIFSLGGSPYPGVQMDEDFCSRLREGMRMRAPEYSTPEIYQIMLDCWHRDPKERPRFAELVEKLGDLLQANVQQDGKDYIPINAILTGNSGFTYSTPAFSEDFFKESISAPKFNSGSSDDVRYVNAFKFMSLERIKTFEELLPNATSMFDDYQGDSSTLLASPMLKRFTWTDSKPKASLKIDLRVTSKSKESGLSDVSRPSFCHSSCGHVSEGKRRFTYDHAELERKIACCSPPPDYNSVVLYSTPPI | At + of all (i to vii) of FIG. 1, a single band was seen at positions where the phosphorylated GST-poly (Glu, Tyr) substrate appears
